The supplement of paper PMC9170038

Test system: K4 kissing-loop RNA reporter
Test: apparent KD of K4 kissing-loop reporter; higher = weaker reporter binding
Details: Eterna round: R107
Procedure: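 RNA-MaP round R107: designed RNA switches with theophylline, tryptophan, arginine or FMN aptamers are transcribed on-chip within common flanks. They are titrated with a labelled K4 kissing-loop RNA reporter in RNA-MaP buffer (100 mM Tris pH 7.5, 80 mM KCl, 4 mM MgCl2), without ligand or with the indicated ligand. Median apparent KD per design.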

[1] = input ligand: theophylline 20 uM
[2] = input ligand: tryptophan 2.4 mM
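Also: bound reporter read as fluorescence of individual clusters on recovered sequencing chips by microscopy, with normalized cluster intensities fitted with a binding model.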

| Sequence | apparent KD of K4 kissing-loop reporter (input ligand: FMN 200 uM) [nM] | apparent KD of K4 kissing-loop reporter (input ligand: arginine 13.2 mM) [nM] | apparent KD of K4 kissing-loop reporter (input ligand: none) [nM] | apparent KD of K4 kissing-loop reporter [1] [nM] | apparent KD of K4 kissing-loop reporter [2] [nM] |
| --- | --- | --- | --- | --- | --- |
| AAUAACUAGUAUAUUUUUAAUAAUACAGAUACCAGUGAUAAUAGACACCCUUGGCAGCUGAUCGAGUGAUGUUCGUUUAUUUUAA [#11 K4 Theophylline A Same State] | 80.2 | 86.9 | 85 | 129 | 64.7 |
| GGAUAGGACAGAGGAUAUGGCAGUCUACAAAGUAGGCUGAAAUAAAUCCUUGAAUGGAGUGAUGUUCCAGAAGGCUGUCCUAUCG [FmnBX 23 #SwitchBubble #StaticStem #Palindromic] | 911 | 156 | 158 | 169 | 172 |
| UAAUUUAUGUCUUUAAUUUUAUAAUCAGAUACCAGUGAUUUAUGACACCCUUGGCAGCUGUAUUGAGUGAUGUUCUUAUACUUAA [JR_Nu_ExcTheophyA_Sub022] | 140 | 167 | 175 | 236 | 99.3 |
| GGUGACGACCAGAGGUGAUGUAUAGUAUCGCGAGGACCGGUACGGCCGCCACUCGUGAAGAGAAAGGAGUGAUGUUCCGUAAUGG [Kazoo C9] | 241 | 217 | 289 | 289 | 108 |
| CGAUGGAUGGCAGGAUAUAGACAUUGAGUGAUGUUCGAUGAUUAUCCAUAUUCCCGUCACCUAAGACUAGAAGGGCCAUCCAUCG | 554 | 167 | 205 | 191 | 198 |
| UGACUACAUAAGGAAUAAUCCUAGUGAUGUUAGGAUAUGCUGAUAAGCAGAAGGAACGGAGAUCGAAGGAUCUCAUAUGUAGUCU [whbob_Ex_FMNA__2th194] | 275 | 101 | 103 | 121 | 103 |
| AAAUUCUUUUUUUUAUUUAACUUUUCAGAAGGAGCGUGGUAGUACACAGGUAGGUCGCUGAAUUUUAGACUAGUGAUGUUAGUUA [JR_SSArginiA_Sub008] | 130 | 156 | 190 | 182 | 151 |
| UCGAGUUGACGAAAAGUCAACUCGUGAGAUACCAGUGACGAAAGUCACCCUUGGCAGCUCACUGCCAGUGAUGUUGGUAUAUAGA [#05 K4 Theophylline A Same State] | 146 | 80.8 | 105 | 217 | 87.5 |
| AAGGUCACUACUACAGUGAUGUUGUAGGAGCAGGAUAUGCAGAAAUGCAGAAGGGCUCGCUCCAAGUGACCGAAUGAAACAUUCA [Omei KL FMN A SS A v2] | 368 | 430 | 607 | 611 | 482 |
| CCUGGCGAGGUAACGUGGAUAUCUCGUCGCAAGGAUAUCUGGAAACAGAGAAGGUGCUACAUUACCGGCAGUGAUGUUGCUGACC | 841 | 336 | 426 | 455 | 274 |
| CGAGUCCUGAGGAGUGAUGUUCCUCGGCCACGAGGACCGGUACGGCCGCCACUCGUUACUCGAGCUUAGUAGCUAGCACUAAGCC [Zaussora] | 189 | 164 | 179 | 186 | 109 |
| UGCUGGUCAUAGCGUAGUGUGAGCCGCUCACGAGGACCGGUACGGCCGCCACUCGUUACAAAGCAGUGAUGUUGCAAUAGGCUCU [theeternabot_sameState_KL_Trp_A_24] | 332 | 407 | 339 | 417 | 156 |
| AUGCGCGCGGCGGCCGCCACUCGCAUGAGAGUGAUGUUCUCGCCGUGCCCGUAAGGGUGCGGUGUGAGGACCGGGCCGGGCUGCG [#2 Same State - Tryptophan B Attempt #20 (HarryS)] | 204 | 107 | 227 | 37.5 | 239 |
| UCUGCAAAGUCGGCCGCCACUCCGGGCCCUAUAAAUGGGCGCAGUGAUGUUGCGGCUAGGCCUCUGAGGACCGGGACUUUGUAGA [Atlesoqu] | 87.5 | 54.3 | 100 | 132 | 246 |
| AGUCCUAUGACGGCCGCCACUCCGGUUAUGAUUUGCCAAGUGAUGUUUGGGUAUCAGGCGAGGCGGAGGACCGGGUCGACCUGCC [theeternabot_exclusion_KL_Trp_B_18] | 171 | 139 | 151 | 129 | 152 |
| GCCGUAGAUGGAAGGAGCGUGGUCUAGAAGCACAAGUGAUGUUUGUGGUAACCUUCUGACCCACAGGUAGGUCGCCAUCUACGGC | 88.4 | 78.4 | 85.7 | 68.1 | 82.1 |
| GAGAGCCCUGGAGGAUAUGAGUCUAGUGAUGUUAGGCGGUCCAUGCGCGUGGCGCGUUAUGCCCUUUUAGAAGGCCAGGGCUCUC [#2 Exclusion - FMN B Attempt #18 (HarryS)] | 109 | 68.5 | 88.5 | 85.2 | 89.7 |
| UUUUAUUAAUUCUUCUAGUGAUGUUAGAUACGAGGACCGGUACGGCCGCCACUCGCUUAUUGGUUUAUAAAUUUUAUAUUAUUUA [JR_SSTryptoA_Sub016] | 292 | 296 | 286 | 294 | 249 |
| CCUAUCUGUUACGAUACCAGUCAAUGAUAUUUUAUCAAUGCCCUCACCGAGUGAUGUUCGGACCCUUGGCAGCGUCUGGGAUAGG [tyygpimullin] | 160 | 148 | 171 | 153 | 151 |
| GAUUGGCGGACGGCCGCCACUCGGACGAGUCACAGUGAUGUUGUGGUUUGCCAGUCGACUUCAUCGAGGACCGGGUUUGUCGGGC [Exclusion Tryptophan B GF 21] | 592 | 407 | 497 | 405 | 349 |
| UGAUACCAGACGGCCGCCACUCCCGUAAGUCAAAGACUUACGAAGAGAGUCGUCCAGUGAUGUUGGAGGACCGGGUCUGGUAUCU [FiskerMod 12 - Jieux - Exclusion - Tryptophan B] | 179 | 143 | 163 | 138 | 294 |

| Sequence | apparent KD of K4 kissing-loop reporter (input ligand: FMN 200 uM) [nM] | apparent KD of K4 kissing-loop reporter (input ligand: arginine 13.2 mM) [nM] | apparent KD of K4 kissing-loop reporter (input ligand: none) [nM] | apparent KD of K4 kissing-loop reporter [1] [nM] | apparent KD of K4 kissing-loop reporter [2] [nM] |
| --- | --- | --- | --- | --- | --- |
| GUGCGCGCGGCGGCCGCCACUCGCAUGAGAGUGAUGUUCUCACCGUGACCGCAAGGUCGCGGUGUGAGGACCGGGCCGGGCUGCG [#2 Same State - Tryptophan B Attempt #25 (HarryS)] | 74.3 | 93.5 | 217 | 464 | 297 |
| AAAUAGCUGACGUUGAGUGGGAGCCAGGCACGAGGACCGGUACGGCCGCCACUCGACUAGGUUUUCAGUGAUGUUGAAAAUUUAA [Exclusion Tryptophan A GF 5] | 239 | 249 | 206 | 224 | 194 |
| AGGCACGAGCAAGGAUAUCGAGUAGAGUGAUGUUCUGCCUGGGUUGGCUCGAAAGGGCCUUCCCAGCGAGAAGGUGCUCGUGCCU [#2 Same State - FMN A Attempt #14 (HarryS)] | 219 | 325 | 300 | 1040 | 619 |
| AUACAUGUAAAUCUAUAUGUAUAAUGGAGCCGAGGACCGGUACGGCCGCCACUCGGAGUAAUCGGAGUGAUGUUCCGAAAUGUAC [KL-SSTryp-A sub13] | 93.7 | 119 | 104 | 123 | 64.6 |
| GAUUUAGAGGCGGCCGCCACUAGUGAUGUUAGUGAUGUUUGAUAGGGAAUAUAUCUGCGAGUAGAUAGGACCGGGCCAGAUGGAG [eccvbmullin] | 192 | 128 | 150 | 168 | 151 |
| GGAUAGGAUAGAGGAUAUGGCUUAUGCAGAAAUAACUUAUUGUGUAAAUCCAUAGGGAGUGAUGUUCCAGAAGGCUGUCCUAUCG [MatMod 16 - Jieux - Exclusion - FMN B] | 821 | 218 | 235 | 224 | 202 |
| AGGAUGUAGUGAUGUUAUAUAAGAAGUAAACGAGGACCGGUACGGCCGCCACUCGAAGCGGCUACUAGCGCGUUGCGAGGUGUGC [ExTryptoA.Ce] | 492 | 384 | 581 | 656 | 378 |
| CCUGCCAGCACGGCCGCCACUUCUAUUGUAUCUAUUUUUGUAAUCCUUUAGGAGUGAUGUUUUUAAAGGACCGGGUGAUGGCUGA [theeternabot_exclusion_KL_Trp_B_14] | 446 | 248 | 398 | 356 | 410 |
| AGUGAUGUGGGAAGGAGCGGUAUAAGAAUUCAGUGAUGUUGAAGUGUUGCUGUAAUAAAGAGCCAGGUAGGUCGCCUAGAUGUUA [KL-XARG B30] | 811 | 775 | 940 | 1120 | 562 |
| CUAGCCGGGAAAGGAUAUACACACGCACAUAACGAGUGAUGUUCGUUAAUACCAACUUGGUUAACUGUAGAAGGUUCAUCGUCAC [theeternabot_sameState_KL_FMN_B_36] | 579 | 576 | 803 | 793 | 517 |
| CCAUCGCUAUUCGAUACCAGUCAGGAGGUCUUUGGCCUCCUAAUGGAGUGAUGUUCCUUAGACCCUUGGCAGCGAAUAGUGAUGG [Theophylline B K4 14] | 630 | 171 | 405 | 448 | 249 |
| AGAGAGGUGUUUUUUUGAUGUGAGUAAUGGCGAGGACCGGUACGGCCGCCACUCGGGUGAUGUUAGUGAUGUUGAUGUAGUGAUG [p'pmullin] | 79.4 | 66.6 | 71.1 | 131 | 77 |
| CGCUGGGCGAGUGAUGUUCGCUCACGUGAUACCAGUGCCAUCCAACACCCUUGGCAGCACGCGGGCAGUGAUGUUGUCCUUAGUG [Exclusion Theophylline A GF8] | 127 | 123 | 128 | 125 | 116 |
| UUUCGUUGAAGUGAUACCAGACUUGAAAGUGAUGUUUUCCAAUAAAUUAAAUUAUUAGCUGUCCCUUGGCAGCACAGUUUAUUUA [JR_ExcTheophyB_Sub006] | 205 | 345 | 301 | 389 | 186 |
| GGAGUUACCUGGGAUACCAGUCGGAGUCCCAGAGCUCGGAGUGAUGUUCUGGGAUGUUUCGGCCCUUGGCAGCUCUGGGACUCCC [#2 Exclusion - Theophylline B Attempt #9 (HarryS)] | 893 | 597 | 776 | 726 | 780 |
| AGACUACCUACACUGUCAAUAGACAGUGACUAGGAUAUGCUGAUAAGCAGAAGGAGUGAUGUUCCUAAUAAAAGGUGGUAGUCAU [FmnAX 19 #SwitchBubble #StaticStem #K4Early] | 309 | 258 | 230 | 284 | 173 |
| UCCUGCUGUCAGCCACGAAAGUGGAUUGAUACCAGAGUCGAAAGACUCCCUUGGCAGCGAGUGAUGUUCGCAGCAGGUAAAUAAA [MatMod 3 - Jieux - Exclusion - Theophylline A] | 358 | 257 | 269 | 356 | 256 |
| AACUCUCAGGCACGCGAGUGAUGUUCGCGGCGAGGACCGGUACGGCCGCCACUCGCGCCUGAGAGAGGUUAUCAAAGAUAGCCAA [whbob_SS_tryp_A] | 146 | 51.3 | 116 | 118 | 223 |
| GUGAAGGAGCUGCAGUGAUGUUGCAGAGACUAGGAUAUCAGGAAACUGAGAAGGAGUCAACUCCUUCACCUAGACAACAUCACUA [[F]''-[K1]-[K2]-[F1]-[F2]-[F2]'-[F1]'-[K]'_Design2] | 148 | 151 | 128 | 269 | 187 |
| UUAGAGAUCUCAGGAUAUCAGUGAUGUUGUAAUCCAGAUCUGAGAUAGAAUUCUAUCUCAGAUCAAUGAGAAGGGAGAUCUCAUU [AK4.2 Exc FMN B] | 306 | 601 | 723 | 576 | 591 |
